Experiment: yeast display, Sf9 membrane polyspecificity reagent, FACS + sequencing; frameworks hold sequencing errors
Procedure, shortened: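 Sorting gates, low and high (top ~1%), were placed on anti-HA fluorescence to track expression and on streptavidin fluorescence to track reagent binding. A clone's polyreactivity label is taken from the gate it came out of. The reagent was 10% biotinylated, detergent-solubilized Sf9 membrane, applied for 1 hour at 4 °C to galactose-induced yeast display cells.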
With “QVQLQEGGGGQVQAGGSLRLSCAASGYITNGDVMGWSRQAPGEERELVASSGLDATTNYADSVKGRFTISRDNAKMTVYLQMNSLKPEDTAVYYCAADVGSGVLCGYWGQGTQMTVSS” the “polyreactivity (PSR sort gate)” value was “high polyreactivity”.
With “QVQLQEIGGGLVQAGGSLRQSYAASGYIFPSLAMGWYRQAQGKEREFVAAIGRGSTNNYADSVKGRFTISRDNAKNTAYQQMNSLKPEDTAVYYCAVVQRSKRTYPWYDYWGQGTQVTVSS” the “polyreactivity (PSR sort gate)” value was “low polyreactivity”.
In the case of “QVQLQERGDGLGQAVGSLRLSCAASGYISGYYYLGWYRQAPGKEGVVVAGIDAFGSRTNFADCVKGRFTISRDNAKNPVDLQMNSLKPEETAVYYCAARPDGDRLFSYWGQGPQVTVSS”, the “polyreactivity (PSR sort gate)” value is reported as “low polyreactivity”.
For “QVQLQERGGGLVQAGGSLRLSCAASGIIYADGFMGLYRQAPGKEREFVATITGGGTSNYADSVKGRFTISRDNAKNTVYLQMNSLKPEDTAVYYCAVYFAWTIGFTYLGQGTQVTVSS”, the “polyreactivity (PSR sort gate)” value was “high polyreactivity”.
With “QVQLQERGVGLVQAGGTISLGYDMVWYRQAPGKEREFVAGIDTCAITYYADSVKGRFTNSRDNAKNTVYLQMNILNPEDTAVYYCAANQTHTYAHSYWGQGTQVTVSS” the “polyreactivity (PSR sort gate)” value was “high polyreactivity”.
In the case of “QVQLQESAAGLVQAGGSLRMSCAASGNIFDADIMGWYRQEPGKERELVASITDGRRTNYADSVKGRYTISRDSEKNTVYLQMNSLKPEDTAVYYCAAIAYPVVPTYFDYDSDYFHWGQGTQVTVSS”, the “polyreactivity (PSR sort gate)” value is reported as “high polyreactivity”.
For “QVQLQESAGGLVQAGGSLRLRCSASGYISCDASMGWNRQAPGKERELAASITKGSSTNYADSVKGRFTIRDNAKNTVYLQMNSLKPEDTAVCYCAVTYPYWGDYTYWGQGTQVTVSR”, the “polyreactivity (PSR sort gate)” value was “low polyreactivity”.
In the case of “QVQLQESAGGLVQAGGSLRLRCSASGYISCDASMGWYRQAPGKERELAASITKGSSTNYADSVKGRFTIRDNAKNTVYLQMNSLKPEDSAVCYCAVTYPYWGDYTYWGQGTQVTVSS”, the “polyreactivity (PSR sort gate)” value is reported as “low polyreactivity”.
In the case of “QVQLQESAGGLVQAGGSLRLRCSASGYISCDASMGWYRQAPRKERELAASITKGSSTNYADSVKGRFTIRDNAKNSVYLQMNSLKPEDTAVFYCAVTYPYWGDYTYWGQGTQVTVSS”, the “polyreactivity (PSR sort gate)” value is reported as “low polyreactivity”.
In the case of “QVQLQESAGGLVQAGGSLRLRFSASAYNSCDASMGWYSQAPGKERELSASISKGSSTNYADSVKGRFTIRDNAKNSVYLQMNSLKPEVTAVCYCAVTYPYWGDYTYWGQGTQVSVSS”, the “polyreactivity (PSR sort gate)” value is reported as “low polyreactivity”.
In the case of “QVQLQESAGGMVQAGGSLRLRCSASGYISCDASMGWYRQAPGKERELAASITKGSRTNYADSVKGRFTIRDNAKNTVYLQMNSLKPEVTAVCYCAVTYPYWGDYTYWGQGTQVTVSS”, the “polyreactivity (PSR sort gate)” value is reported as “low polyreactivity”.
In the case of “QVQLQESCGGLVQAGGSLRLSCAASGTIFRFRYMAWHRQAPGKERELVAGINGGTTTYYADSVIGLFTISRDNAKNTVYLQMNSLKPDDTAVYNCAAGASRLTYYDYWGQGTQVTVIS”, the “polyreactivity (PSR sort gate)” value is reported as “low polyreactivity”.
For “QVQLQESGDGLVQAGGSLRLSSAASGTIFSDYGMGGYRQAPGKERELLAGISDGCNTNYTDSVKGRFTISRDNAHRVSADEQPETGGYRGVLLRGSERWLLFYVYWGQGTQVTVSS”, the “polyreactivity (PSR sort gate)” value was “high polyreactivity”.
In the case of “QVQLQESGDGLVQAVGSLRLSCAASGYISGYYYMGWYRQAPGKERELVAGIDAFGSSTNYADCVKGRFTIRRDNAKNTVYLLMNSPKPEDTAVFYCAAEFDDWDYHWYWGQGTQVTVSS”, the “polyreactivity (PSR sort gate)” value is reported as “low polyreactivity”.
In the case of “QVQLQESGDGLVQAVGSLRLSCAASGYISGYYYMGWYRQAPGKERELVAGIDAFGSSTNYADCVKGRLTISRDNAKNTVYLQMNSPKPEDTAVYYCAAEYDDWDYHWYWGQGTQVTVSS”, the “polyreactivity (PSR sort gate)” value is reported as “low polyreactivity”.
With “QVQLQESGGALVQAGGSLRLSCAASGYISAGRQMGWYRQAPGKELEFVATINGGATTNYADSVKGRFTISRDNAKNSVYLQMNSLKPEDTAVYYCAAVIWYVQDYTYWGQGAQVTVSS” the “polyreactivity (PSR sort gate)” value was “high polyreactivity”.
For “QVQLQESGGCLVQADGSLRLSCAASGSIFGYYYMGWYRQAPGKDRELVATINICGITNYADSVKGRFTISRDNAKNTVYLQMNSLKPDDTAVYYCAADEYAQRDLGYWGQGTQVTVSS”, the “polyreactivity (PSR sort gate)” value was “low polyreactivity”.
In the case of “QVQLQESGGDLEQAGGSLLLSCTASGTISEVRVMGWYRQAPGKERELVATISYVTITYYADSVKGRFTISRDSEKHRVSADDEPQTGRYRGVLLSYYWGLGTQVTVSS”, the “polyreactivity (PSR sort gate)” value is reported as “low polyreactivity”.
With “QVQLQESGGDLVQAGGSLRLSCAASGTIYGLTSMGSYRQRPGKEREFVAAITDGGNTNYADSVKGRFTISRDNAKNTVYLQMISLKPDETAVYYWAVLFSDDAYYAYWGQGTQVTVSS” the “polyreactivity (PSR sort gate)” value was “low polyreactivity”.
In the case of “QVQLQESGGGLAQAGGSLRLSCAASGNIFDADIMGWYRKAPGKERELVGSITDGGSTNYVDSVKGRFTISRDNAKNTVHLQMNSLKPEDTAVYYCAAIAYPEIPTYFDYDSDCFNWGHGTQVTVSS”, the “polyreactivity (PSR sort gate)” value is reported as “high polyreactivity”.
In the case of “QVQLQESGGGLCRRAAASSGAASGTISYLNYMGWYRQAPGKEREFVAGINNGTTTNYADSVKGRFTISRDNAKNTVYLQMNSLKLEDTAVYYCAVDPYYTFYFWYWGQGTQLTVSS”, the “polyreactivity (PSR sort gate)” value is reported as “high polyreactivity”.
For “QVQLQESGGGLLQAGGCLSCTASGTILVQGDMGWYRHAPGKERELVATINDGASTYYADSVKGRFTISRDKAKNTVYLQKNSLKPDDTAVYYCAVFTDITTYFGYWGQGTQVTVSS”, the “polyreactivity (PSR sort gate)” value was “low polyreactivity”.
With “QVQLQESGGGLLQAGGSLRLSYAASGYMFPYLAMGWYRQAPGKEREFVAAIGRGSTNNYADSVKGRFTISRDNAKNTAFQQMNSLKPEDTAVYYCAAAASPLTRHLYWGQGSQVTVSS” the “polyreactivity (PSR sort gate)” value was “low polyreactivity”.
In the case of “QVQLQESGGGLMQAGGNLRLSCAASGYISTHYDMDWYRPAPGKERELVARIDDGAITNYADSVKGRFTISRDNAKNTVYLQMNSLKPEDTAVYYCAVYSGDDYYHDYWGQGTQVTVSS”, the “polyreactivity (PSR sort gate)” value is reported as “low polyreactivity”.
In the case of “QVQLQESGGGLMQAGGSLRLSCAASGNIFLGHTKGWYRQAPGNEREFVAGIARGGNPYNADSVKGRFTISRNNAKNTVYLQKNSLKAEDTAVHYCGVQRSHASDYNYWGQGTQVTVSS”, the “polyreactivity (PSR sort gate)” value is reported as “low polyreactivity”.
For “QVQLQESGGGLMQAGGSQRLSCAASGSISYYSDMGWYRQAPGKEREFVAGIGYGTTTNYADSVKGRFTTSRDNAKNTVYLQMISMKTEDTAVYYCAAYQGNGYEFYYWGQGTQVTVRS”, the “polyreactivity (PSR sort gate)” value was “low polyreactivity”.
In the case of “QVQLQESGGGLVEAGGSLRLSCAASGTISYAPHMGWYRQAPGKERELVAGITIGGTTNYADSVKGRFTISRDNAKNTVYLQMISLSPGDTALYYCAAHYDQYTPFYYWGQGSQVTVSS”, the “polyreactivity (PSR sort gate)” value is reported as “low polyreactivity”.
In the case of “QVQLQESGGGLVHAGGSLRLSCPASGTISFINMMGWYRQAPGRERELVASINFGANTNYADSVKGRFTISRDNAKNTVYLQLKSLKPEDTAVYYCAVYCAWTIGFTYWGQGTQVTVRS”, the “polyreactivity (PSR sort gate)” value is reported as “high polyreactivity”.
In the case of “QVQLQESGGGLVLAGGSLRLNCAESGYISWSFTMGWYRKPTGKEREFVAGITYGGITYYADSVKGRFTISRDNAKNTVYLEMNRLKPEDTAVYYCAAPQSYPYVYVYWGQGTEVTVSS”, the “polyreactivity (PSR sort gate)” value is reported as “high polyreactivity”.
With “QVQLQESGGGLVQACGSLRLSCAASGSISNGDYMGWYRQAPGKEREFVAGINTGSITYYADSVKGRFTISRDNAKNTAYLQMNSLKPEDTAVYYCAATFDAQFREPKGLYYWGQGTQVTVSS” the “polyreactivity (PSR sort gate)” value was “low polyreactivity”.

Reference: the nanobody polyreactivity screen of Harvey et al. (2022)
